Data reported in the DeepSol protein solubility set.

Experiment: soluble on expression in E. coli; label from the status in PepcDB or PDB records

| Sequence | soluble on expression in E. coli |
| --- | --- |
| MAETVGERPESMSPKLDNATIAAQLGSLATALDEFNRNSGSQVEMSLLLQRVCDQVVDAIADADMAGISLLRDGRVVTVAYTDEAVREIDIPNFQALDGDYFGVAGTRKVVKARLGEAAARWPSVADNLDQAGMRSFLSAPLAVDEALAGTLNIYGQGDHGFSELDAVVLLVYTTAIEGLLRSARSVELARNEVSGLTKAMKSRAVIEQAKGIVMALRGVPADQAFEILVAQSQQEHVKLAEVARRIVESVTTNPE | not soluble |
| MGSDKIHHHHHHMTPYRDNTPHLARDNHLLFTELARDYCLSMPISFKEALDRAQDATGLSMRKLADKAGVSYEQLKKVRQGKSQTTNAEDALKIATAVGVSFEQFMSGEFDASPTISIAGKVGAGAQVPVFDAYEKGDGPQVECPPGIGPHGVVAVEVEGDSMEPVYSAGDLLFYSRNGHDSVPDDVIGYKCVCEDADGMGWVKQVKAGDEPGLFHLISLNPTGANMWNVRLKWAARVRLHWPAEFARKK | not soluble |
| MAHHHHHHMSYPYYTEFFVRFPKFKEREESERTVDPRIELEKKCQAKCVRPVNEYQSCVSRVQAKPEMKGNCLGQHEEMYMCIDHCVAKDLFNYLV | not soluble |
| SNAMKDVLAEYASRIVSAEEAVKHIKNGERVALSHAAGVPQSCVDALVQQADLFQNVEIYHMLCLGEGKYMAPEMAPHFRHITNFVGGNSRKAVEENRADFIPVFFYEVPSMIRKDILHIDVAIVQLSMPDENGYCSFGVSCDYSKPAAESAHLVIGEINRQMPYVHGDNLIHISKLDYIVMADYPIYSLAKPKIGEVEEAIGRNCAELIEDGATLQLGIGAIPDAALLFLKDKKDLGIHTEMFSDGVVELVRSGVITGKKKTLHPGKMVATFLMGSEDVYHFIDKNPDVELYPVDYVNDPRVIAQNDNMVSINSCIEIDLMGQVVSECIGSKQFSGTGGQVDYVRGAAWSKNGKSIMAIPSTAKNGTASRIVPIIAEGAAVTTLRNEVDYVVTEYGIAQLKGKSLRQRAEALIAIAHPDFREELTKHLRKRFG | soluble |
| MSEFLNENPDILEENQLPTRKEDSTKDLLLGGFSNEATLERRSLLLKIDHSLKSQVLQDIEVLDKLLSIRIPPELTSDEDSLPAESEDESVAGGGKEEEEPDLIDAQEIYDLIAHISDPEHPLSLGQLSVVNLEDIDVHDSGNQNEMAEVVIKITPTITHCSLATLIGLGIRVRLERSLPPRFRITILLKKGTHDSENQVNKQLNDKERVAAACENEQLLGVVSKMLVTCK | soluble |
| MGSDKIHHHHHHMNMAQVAVALAKLAGIRKALDLALNDDHKKAGRLPIQNFLIEEVGRYFTGAATQLSILKKELPDLFGDFVEMPVEPKTEMAKTSTEGAAQYRYARSQLEVLARDIDQIFELRANSELAPPLIAAATTRRVFISHGRAPDWREVQAYVEKDIGLPTLELAQEPNQGRTILAKLMEASGQCDSAVIVMTGDDLDAAGQARARENVIHEIGFFQGKYGLGRVCLLHEEGVSIPSNIHGLVYTPFPKGMVSACFGVLTRELKAFY | not soluble |
| MGSDKIHHHHHHMRFSRIPPIFANVVRQTHYRNYANGVIKPREFNKVMVANRGEIAIRVFRALTELNKTSVAIYAEQDKNSMHRLKADEAYLVGKGLPPVAAYLTIDQIIETALKHNIDAIHPGYGFLSERSDFAAACQNAGIVFIGPSPDVMARMGDKVAARQAAIEAGVQVVPGTPGPITTADEAVEFAKQYGTPIILKAAYGGGGRGIRRVDKLEEVEEAFRRSYSEAQAAFGDGSLFVEKFVERPRHIEVQLLGDHHGNIVHLYERDCSVQRRHQKVVEIAPAPALPEGVREKILADALRLARHVGYQNAGTVEFLVDQKGNYYFIEVNARLQVEHTVTEEITGVDLVQAQIRIAEGKSLDDLKLSQETIQTTGSAIQCRVTTEDPAKGFQPDSGRIEVFRSGEGMGIRLDSASAFAGSVISPHYDSLMVKVIASARNHPNAAAKMIRALKKFRIRGVKTNIPFLLNVLRQPSFLDASVDTYFIDEHPELFQFKPSQNRAQKLLNYLGEVKVNGPTTPLATDLKPAVVSPPIPYIPAGAKPPTGLRDVLVQRGPTEFAKEVRSRPGCMITDTTFRDAHQSLLATRVRTYDMAAISPFVAQSFNGLFSLENWGGATFDVSMRFLHECPWERLQTLRKLIPNIPFQCLLRGANAMGYSNYPDNVIYKFCELAVKNGMDVFRVFDSLNYLPNLLVGMEAVGKAGGVVEAAIAYTGDVTDKSRDKYDLKYYLNLADQLVKAQAHILSIKDMAGVLKPEAAKLLIGALRDKFPDIPIHVHTHDTSGAGVAAMLECAKAGADVVDAAVDSMSGMTSQPSMGAIVASLQGTKHDTGLSLDDISKYSAYWESTRQLYAPFECATTMKSGNADVYKHEIPGGQYTNLQFQAFSLGLGPQFDEVKRMYREANLVLGDIIKVTPSSKIVGDLAQFMVQNNLTRETLVDRADDLSFPKSVVDFMQGNVGQPPYGFPEPLRTKVLRGKPKVDGRPGENAKPVDLDAVKVELEEKHGRTLSEEDVMSYSMFPTVFDEFETFRQQYGPVDKLPTRLFLTGLEIAEEVDVEIESGKTLAIQLLAEGKLNKRGEREVFFDLNGQMRSIFVVDKEASKEIVTRPRALPGVRGHIGAPMPGDVLELKIKEGDKVTKKQPLFVLSAMKMEMVIDSPIAGTVKAIHAPQGTKCSAGDLVVEVEP | not soluble |
| MNLNFSLLDEPIPLRGGTILVLEDVCVFSKIVQYCYQYEEDSELKFFDHKMKTIKESEIMLVTDILGFDVNSSTILKLIHADLESQFNEKPEVKSMIDKLVATITELIVFECLENELDLEYDEITILELIKSLGVKVETQSDTIFEKCLEILQIFKYLTKKKLLIFVNSGAFLTKDEVASLQEYISLTNLTVLFLEPRELYDFPQYILDEDYFLITKNMV | not soluble |
| MANLQNMSSSPKHTNGSSERSENCGELCVVCGDKASGRHYGAVSCEGCKGFFKRSIRKRIGYVCRSQKDCPVTKFHRNRCQYCRLRKCLSMGMRSESVQAERRPVNNSSMLCNNDNNQQNTTPEHLSPNLLLSLVKLEHETKLGGLEALIKPGSPVMLQNTQDYMDVKRESIGEDEMTVIGLVPPSASPTSSGVGSSSSISDDSGPIYTSERARFEISVPLNTQNPRNHQYISEITTRLLFLTVHFVKDSRVSLRTSTMEGLLKSKWCDLYILALMQTADKIKLGQLLDNLTNQMAMGMECGQYSAEKFEKISEQMQRLLQLSQLFASRELTAVEYAYLKMISFTAQDLPSSMASPETRSVNQMASQELFEYVSSSKSTQNHMSNEHINVDDSTSEDNDTHVTSQQSSVNIAAERFSRILQLLPCLRWFDPATIVEIFFSGLIGPMSIETIIPFVLQMNLMSFFDQKMELGSGGASDTLSTSSLSEMMNNQ | not soluble |
| MLIELLISITVLASILVSCKKEKNEAAKLKPRGFDRKSSGAPAPAGANLVNKSGGSGGGSGGSGDANRLLKREIKEVKMEERSADDNETINDVKSNWGTV | not soluble |
| MSGLVLGQRDEPAGHRLSQEEILGSTKVVSQGLEALHSEHQAVLQSLSHTIECLQQGGHEEGLVHEKARQLRRSMENIELGLSEAQVMLALASHLSTVESEKQKLRAQVRRLCQENQWLRDELAGTQQRLQRSEQAVAQLEEEKKHLEFLRQLRQYDEDGHGMEEKEGEATKDSLDDLFPNEEEEDSGNDLSRGQGAAAAQQGGYEIPARLRTLHNLVIQYAAQGRYEVAVPLCKQALEDLERTSGRGHPDVATMLNILALVYRDQNKYKEAAHLLNDALSIRESTLGRDHPAVAATLNNLALLSVWGWPTGLPCPGLFYPLLPHYRSTYFTVSLINEPGNI | soluble |
| VRQRTIVCPLIQNDGAYLLCKMADDRGVFPGQWAISGGGVEPGERIEEALRREIREELGEQLLLTEITPWTFSDDIRTKTYADGRKEEIYMIYLIFDCVSANREVKINEEFQDYAWVKPEDLVHYDLNVATRKTLRLKGLL | soluble |
| MVQDQLTSILTTVGLNLMAKLTDNSRSVVISPSEVALSVAKSTLKHCEPLPYELFQSDYESEFRELIEQLENFEAMKVNPSPPVWNFAISEFKKKNFKLSNGKLKKMNFIWINLETNMELSCEKTGAQMAQDKEFKVLSIPLAGDAGKFVVFFPENQEETIEESLKKLNTRKFQRLIDDLVPKFIHFEHPVFKIQSKFFISENLTMTDRGLTHEKEFEVCHGENNDFRRGLLMDRCEYVPYIFRVNRPFIFCVVQNGVPVTMGIFDGN | not soluble |
| MEAQAQGLLETEPLQGTDEDAVASADFSSMLSEEEKEELKAELVQLEDEITTLRQVLSAKERHLVEIKQKLGMNLMNELKQNFSKSWHDMQTTTAYKKTHETLSHAGQKATAAFSNVGTAISKKFGDMSYSIRHSISMPAMRRK | soluble |
| MISPELVKEALKKKKVRSEEAFGLEYLRFNDDYKDIPRGTAIFKDFIIWGYPHIGRIFLLETGLREQFEAPFWVEEKVDGYNTRIFKYGDNYYALSRGGFICPFTTDRLPDLIDLRILDENPDLVICAEVAGPENPYIEESPPYVKEDVQLFVFDFMKKNEQGFLSQEEKMELIEKYNLPHVEILGRFTASEEGIKKIKEILKRFNEEGREGVVFKEDSERNKRAKYITSYANLMDIKTNAKNMLQLPPEYYTNRILRLVLFMYEEGLKTTEHLYEELGRAFIDGLFQAIEQFEKEHKVYKTFTCKFRKKENAIALLELLSKTSKHIQVKERRLEKEGDYWRLEFDKVFLNMTGLLGHLLSGGIVYD | soluble |
| SLKIKHEHIESVLLALAAEKGQAWVANAITEEYLRQGGGELPLVPGKDWNNQQNIYHRWLKGETNAQREKIQKLIPAVLAILPRELRHRLCIFDTLERRALLAAQDALSTAIDAHDDAVQAVYRKAHFSGGGSPSDSVVVH | soluble |
| SNAMLHYVHVGNKKSPNTLLFVHGSGCNLKIFGELEKYLEDYNCILLDLKGHGESKGQCPSTVYGYIDNVANFITNSEVTKHQKNITLIGYSMGGAIVLGVALKKLPNVRKVVSLSGGARFDKLDKDFMEKIYHNQLDNNYLLECIGGIDNPLSEKYFETLEKDPDIMINDLIACKLIDLVDNLKNIDIPVKAIVAKDELLTLVEYSEIIKKEVENSELKIFETGKHFLLVVNAKGVAEEIKNFI | soluble |
| MAHHHHHHMQQENRHLSSADLFKKFTLQNVAQIANISNKEQSQIRGELTEQYPLLADFWEDIMPKKADIMLVRCHDQVHCVTLVSSQPEVLFFRHHNSPYIPHLKLLHKYPFILPRQQVDIGGCKYVVSGANVMCPGLTSEGGYITPGLAAGAIVAIHVEQKEHAIAVGRMLMSSEEIERVNNGPGIENIHHLGDGLWMNRVLSSSHIGAR | soluble |
| MGSSHHHHHHSSGLVPRGSHMEAIGVLMMCPMSTYLEQELDKRFKLFRYWTQPAQRDFLALQAESIRAVVGNSNAGADAELIDALPKLEIVSSFSVGLDKVDLIKCEEKGVRVTNTPDVLTDDVADLAIGLILAVLRRICECDKYVRRGAWKFGDFKLTTKFSGKRVGIIGLGRIGLAVAERAEAFDCPISYFSRSKKPNTNYTYYGSVVELASNSDILVVACPLTPETTHIINREVIDALGPKGVLINIGRGPHVDEPELVSALVEGRLGGAGLDVFEREPEVPEKLFGLENVVLLPHVGSGTVETRKVMADLVVGNLEAHFSGKPLLTPVV | soluble |
| MREKWRKKRMRRLKRKRRAAKK | not soluble |
| MGSDKIHHHHHHMSDSKWKYNIIYNMEIEVLTGLHIGGSNEELKIGGTDSPVITTKYLINNVEPCDLPYIPGSSIKGKIRSLLENVDYKGKNGDDIVSKMFGYYPNAGEGIKRLTRLIIRDAFLDDGHIKSAEDARNVIEIKSENKIDPIESKATPRFIERVRRGTKFKGKIILSIYEGDNEEEMIKCLKTGISLLEDSYLGGNGTRGYGSVKITLGEPIKKGIDKYEENIKDNTSNGSEN | not soluble |
| VADVVPLDANNRILVHQGLMRIRAGRARPGLRAILEVARREPARITSTDLGFILGPRLNAAGRLDDMSLGIECLLCDDPTRAREMAVQLDELNQDRKSIEQGMQREALAQLKDLPMESMPFGLCLFDAEWHQGVIGIL | not soluble |
